Test results: publication PMC2661964, “Mammalian Kinesin-3 Motors Are Dimeric In Vivo and Move by Processive Motility upon Release of Autoinhibition” (PLoS Biology, 2009)

Key:
mCit-KHC = test: FRET or BRET; FRET stoichiometry (average FRET efficiency, E AVE) in live COS cells coexpressing mCit- and mCFP-tagged motors; Kinesin-1 with HA-KLC coexpressed
KHC(1–891)-3xmCit = test: stepwise photobleaching of single molecules (TIRF microscopy); lysates of COS cells expressing 3xmCit-tagged constructs, in flow chambers with Cy5-microtubules, with AMPPNP; number of bleaching steps of 160–200 spots for each construct

| Substance | average FRET efficiency (E AVE), motor-to-motor (mCit-KHC) [%] | stoichiometry N (KHC(1–891)-3xmCit) |
| --- | --- | --- |
| mCFP-KHC (natural protein) | 2.1 |  |
| KHC(1–891)-3xmCit (domain or fragment) |  | 2 |
